Test results from patent US20160176973A1 (published 2016).

Legend:
Test in all cases: SPR (Biacore)
BCMA 101 x CD3 = target: BCMA 101 x CD3
BC 244-C6 x CD3 = target: BC 244-C6 x CD3
BC 247-C3 x CD3 = target: BC 247-C3 x CD3

Kd (BCMA 101 x CD3): 500 pM | Kd (BC 244-C6 x CD3): 300 pM | Kd (BC 247-C3 x CD3): 400 pM
B1: Human BCMA (receptor)
chain (part 1 of 2): MLQMAGQCSQNEYFDSLLHACIPCQLRCSSNTPPLTCQRYCNASVTNSVKGTNASGGGGSEAHKSEIAHRYNDLGEQHFKGLVLIAFSQYLQKCSYDEHAKLVQEVTDFAKTCVADESAANCDKSLHTLFGDKLCAIPNLRENYGELADCCTKQEPERNECFLQHKDDNPSLPPFERPEAEAMCTSFKENPTTFMGHYLHEVARRHPYFYAPELLYYAEQYNEILTQCCAEADKESCLTPKLDGVKEKALVSSVRQRMKCSSMQKFGERAFKAWAVARLSQTFPNADFAEITKLATDLTKVNKECCHGDLLECADDRAELAKYMCENQATISSKLQTCCDKPLLKKAHCLSEVEHDTMPADLPAIAADFVEDQEVCKNYAEAKDVFLGTFLYEYSRRHPDYSVSLLLRLAKKYEATLEKCCAEANPPACYGTVLAEFQPLVEEPKNLVKTNCDLYEKLGEYGFQNAILVRYTQKAPQVSTPTLVEAARNLGRVGTKCCTLPEDQRLPCVEDYLSAILNRVCLLHEKTPVSEHVTKCCSGSLVERRPCFSALTVDETYVPKEFKAETFTFHSDICTLPEKEKQIKKQTALAELVKHKPKATAEQLKTVMDDFAQFLDTCCKAADKDTCFSTEGPNLVTRCKDALA
chain (part 2 of 2): SGHHGGHHGGHH
